Substitutions are numbered along the chain they refer to. One block for each binder: values may come before it.
Tests used:
Test in all cases: BLI (Octet HTX), mAb captured on Protein A sensor, 100 nM ligand, 25 C
[1] = target: T1, human BMP6 (R&D Systems, Cat #507-BP) (human, UniProt P22004 375-513, limits assumed)
T1 construct: Bought protein (R&D Systems 507-BP or 507-BP/CF); also called hBMP6; hBMP-6
T1 sequence: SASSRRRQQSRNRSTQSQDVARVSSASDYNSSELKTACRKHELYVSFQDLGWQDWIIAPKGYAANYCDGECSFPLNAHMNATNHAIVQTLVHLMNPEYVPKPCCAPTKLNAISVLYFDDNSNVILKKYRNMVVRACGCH
Method: (§1) Binding cross-reactivity of anti-BMP6 monoclonal antibodies to BMP6 family members, (Human: BMP6, BMP5, BMP7, BMP8A, BMP9, BMP10, BMP12, BMP14, BMP3b, Activin A, and GDF3 and mouse: BMP6 and GDF6) was determined using a real-time Bio-Layer Interferometry (BLI) biosensor using Octet HTX instrument. All binding studies were performed in 10 mM HEPES, 150 mM NaCl, 3 mM EDTA, 1 mg/mL BSA, 50 μg/mL Heparin, and 0.05% v/v Surfactant Tween-20, pH 7.4 (HBS-EBHT) buffer at 25° C. with the plate shaking at a speed of 1000 rpm. To assess binding cross-reactivity, Protein A coated Octet biosensor (Pall ForteBio Corp., #18-5010) was first dipped in wells containing […] of anti-BMP6 monoclonal antibodies for 4 minutes followed by submerging in wells containing 100 nM of different BMP6 family members for 4 minutes. The biosensors were washed in HBS-EBHT buffer in between every step of the experiment. At the end of each cycle, the Protein A biosensor was regenerated using three alternate 5 second dips in 10 mM Glycine pH 2.0 and 10 second dip HBS-EBHT buffer. The real-time binding response was monitored during the course of the experiment and the binding response at the end of every step was recorded and tabulated as shown in Tables 8A and 8B.

Human BMP10 = target: T2, Human BMP10 (human, UniProt O95393 317-424)
T2 sequence (looked up): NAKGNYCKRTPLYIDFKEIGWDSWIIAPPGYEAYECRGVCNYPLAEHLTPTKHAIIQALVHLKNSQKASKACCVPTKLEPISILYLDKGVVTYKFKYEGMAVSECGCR
Method: as §1

Human BMP7 = target: T3, Human BMP7 (human, UniProt P18075 293-431)
T3 sequence (looked up): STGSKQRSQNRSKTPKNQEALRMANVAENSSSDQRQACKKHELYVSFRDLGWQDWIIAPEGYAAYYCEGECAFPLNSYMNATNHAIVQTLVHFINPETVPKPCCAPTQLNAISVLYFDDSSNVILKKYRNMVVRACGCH
Method: as §1

Human BMP9 = target: T4, Human BMP9 (human, UniProt Q9UK05 320-429)
T4 sequence (looked up): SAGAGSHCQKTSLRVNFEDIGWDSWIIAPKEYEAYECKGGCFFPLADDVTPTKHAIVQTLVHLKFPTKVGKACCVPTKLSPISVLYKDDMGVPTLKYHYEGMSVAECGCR
Method: as §1

Human BMP14/GDF5 = target: T5, Human BMP14/GDF5 (human, UniProt P43026 382-501)
T5 sequence (looked up): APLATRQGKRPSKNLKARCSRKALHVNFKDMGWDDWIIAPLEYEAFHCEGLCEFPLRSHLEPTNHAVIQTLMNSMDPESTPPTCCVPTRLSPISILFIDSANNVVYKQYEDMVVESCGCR
Method: as §1

Mouse GDF6 = target: T6, Mouse GDF6 (mouse, UniProt P43028 335-454, limits assumed)
T6 sequence (looked up): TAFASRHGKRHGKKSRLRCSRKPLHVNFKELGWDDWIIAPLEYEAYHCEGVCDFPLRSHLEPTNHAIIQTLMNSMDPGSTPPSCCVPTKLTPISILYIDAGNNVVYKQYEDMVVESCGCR
Method: as §1

[2] = target: T7, mouse BMP6 (R&D Systems, Cat #6325-BM) (mouse, UniProt P20722 372-510, limits assumed)
T7 construct: Bought protein (R&D Systems 6325-BM or 6325-BM/CF); also called mBMP6
T7 sequence: T1 sequence with A21S, V23G, S25G, A26S, S31G, R39K
Method: as §1

Human BMP8A = target: T8, Human BMP8A (human, UniProt Q7Z5Y6 264-402, limits assumed)
T8 sequence (looked up): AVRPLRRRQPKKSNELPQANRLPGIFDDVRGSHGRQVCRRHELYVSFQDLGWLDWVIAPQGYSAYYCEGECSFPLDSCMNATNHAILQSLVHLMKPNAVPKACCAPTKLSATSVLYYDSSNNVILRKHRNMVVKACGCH
Method: as §1

- binding response [1]: 0.21 nm
- binding response (Human BMP10): 0.01 nm
- binding response (Human BMP7): 0 nm
- binding response (Human BMP9): 0.01 nm
- binding response (Human BMP14/GDF5): -0.01 nm
- binding response (Mouse GDF6): -0.02 nm
- binding response [2]: 0.09 nm
- binding response (Human BMP8A): 0 nm
B1: H4H17871P (antibody, V domains shown)
VH: EVQLVESGGGLVQPGGSLRLSCAASGFTFNNYAMSWVRQAPGKGLEWVSAISGSGDSTYYADSVKGRFTISRDNSKNTLYLQMNSLRAEDTAVYYCAKRSRSSPFDPWGQGTLVTVSS
VL: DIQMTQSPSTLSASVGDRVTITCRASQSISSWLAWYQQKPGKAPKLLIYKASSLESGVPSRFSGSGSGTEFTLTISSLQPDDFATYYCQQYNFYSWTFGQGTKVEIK
notes: Fully human antibody; also called anti-BMP6 monoclonal antibody; BMP6 antibody of the invention

- binding response [1]: 0.29 nm
- binding response (Human BMP10): -0.01 nm
- binding response (Human BMP7): 0.05 nm
- binding response (Human BMP9): 0 nm
- binding response (Human BMP14/GDF5): -0.02 nm
- binding response (Mouse GDF6): -0.02 nm
- binding response [2]: 0.09 nm
- binding response (Human BMP8A): -0.02 nm
B2: H4H17855P (antibody, V domains shown)
VH: B1 VH with N30S, N31S, D56G, S57R, A61T, I70M, S100P, R101Y, S102N
VL: EIVLTQSPGTLSLSPGEGATLSCRASQSVSSSYLAWYQQKPGQAPRLLIYGASSRATGIPDRFSGSGSGTDFTLTISRLEPEDFVVYYCQHFGGTPFTFGGGTKVEIK
notes: as for B1

Reference: patent publication US20220251184A1 (Regeneron, published 2022)
